Data taken from patent US20110195911A1, “SYNTHETIC ANALOGS OF THE JUXTAMEMBRANE DOMAIN OF IGF1R AND USES THEREOF” (THE UNITED STATES OF AMERICA,AS REPRESENTED BY THE …, priority 2008, published 2011).
The star is where a group is joined. Palmitoyl = CCCCCCCCCCCCCCCC(=O)*

Target: Insulin-like growth factor 1 receptor (IGF1R) (UniProt P08069 31-1367, limits assumed)
Experiment: cell-based or functional assay

Sequence of Insulin-like growth factor 1 receptor (IGF1R) (P08069 31-1367 limits assumed): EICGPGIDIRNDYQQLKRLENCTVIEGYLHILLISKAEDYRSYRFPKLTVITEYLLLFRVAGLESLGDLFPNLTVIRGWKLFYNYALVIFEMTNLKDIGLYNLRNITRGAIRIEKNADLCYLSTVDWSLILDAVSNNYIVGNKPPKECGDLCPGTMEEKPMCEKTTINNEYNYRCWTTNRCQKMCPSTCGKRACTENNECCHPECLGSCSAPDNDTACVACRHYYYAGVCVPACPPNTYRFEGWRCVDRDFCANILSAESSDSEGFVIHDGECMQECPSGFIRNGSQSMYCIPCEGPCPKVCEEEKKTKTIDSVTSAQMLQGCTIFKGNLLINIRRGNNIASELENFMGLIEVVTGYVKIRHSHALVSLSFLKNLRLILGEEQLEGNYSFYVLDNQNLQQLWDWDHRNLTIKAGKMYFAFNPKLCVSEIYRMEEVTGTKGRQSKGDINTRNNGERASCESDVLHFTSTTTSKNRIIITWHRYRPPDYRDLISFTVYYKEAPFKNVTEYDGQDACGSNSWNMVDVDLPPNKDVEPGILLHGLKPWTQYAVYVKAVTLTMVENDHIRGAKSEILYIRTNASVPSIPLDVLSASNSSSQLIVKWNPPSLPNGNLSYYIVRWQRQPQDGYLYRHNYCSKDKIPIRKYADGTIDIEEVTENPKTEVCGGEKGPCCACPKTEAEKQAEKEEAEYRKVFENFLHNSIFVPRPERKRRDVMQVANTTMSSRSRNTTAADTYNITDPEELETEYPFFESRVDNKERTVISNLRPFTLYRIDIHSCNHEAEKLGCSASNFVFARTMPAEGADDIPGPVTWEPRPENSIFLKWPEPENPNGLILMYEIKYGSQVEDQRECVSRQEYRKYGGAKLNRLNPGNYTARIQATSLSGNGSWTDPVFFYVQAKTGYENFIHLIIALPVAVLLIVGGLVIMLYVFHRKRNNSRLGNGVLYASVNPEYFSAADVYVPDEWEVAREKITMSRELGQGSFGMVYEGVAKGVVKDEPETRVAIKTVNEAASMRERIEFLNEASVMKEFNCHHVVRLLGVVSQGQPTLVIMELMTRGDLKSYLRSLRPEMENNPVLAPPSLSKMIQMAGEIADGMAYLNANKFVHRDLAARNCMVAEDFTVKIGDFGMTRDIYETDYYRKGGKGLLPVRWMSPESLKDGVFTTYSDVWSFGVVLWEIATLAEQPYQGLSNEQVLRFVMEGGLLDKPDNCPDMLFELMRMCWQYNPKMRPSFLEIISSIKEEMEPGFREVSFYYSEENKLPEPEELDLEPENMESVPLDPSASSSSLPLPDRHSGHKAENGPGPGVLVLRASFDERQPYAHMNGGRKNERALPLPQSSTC

GI50 (µM), MTT assay, MCF-7 cells | TGI (µM), MTT assay, MCF-7 cells | Binder
1.45 µM | 4.1 µM | Palmitoyl-HRKRNNSRLGNGVLYAS-NH2 (SMILES CCCCCCCCCCCCCCCC(=O)N[C@@H](Cc1c[nH]cn1)C(=O)N[C@@H](CCCNC(=N)N)C(=O)N[C@@H](CCCCN)C(=O)N[C@@H](CCCNC(=N)N)C(=O)N[C@@H](CC(N)=O)C(=O)N[C@@H](CC(N)=O)C(=O)N[C@@H](CO)C(=O)N[C@@H](CCCNC(=N)N)C(=O)N[C@@H](CC(C)C)C(=O)NCC(=O)N[C@@H](CC(N)=O)C(=O)NCC(=O)N[C@H](C(=O)N[C@@H](CC(C)C)C(=O)N[C@@H](Cc1ccc(O)cc1)C(=O)N[C@@H](C)C(=O)N[C@@H](CO)C(N)=O)C(C)C) [peptide 7 (Pal-HRKRNNSRLGNGVLYAS-NH2)]
0.1 µM | > 5 µM | Palmitoyl-HRKRNNSRLGNGVLYASVNP-NH2 (SMILES CCCCCCCCCCCCCCCC(=O)N[C@@H](Cc1c[nH]cn1)C(=O)N[C@@H](CCCNC(=N)N)C(=O)N[C@@H](CCCCN)C(=O)N[C@@H](CCCNC(=N)N)C(=O)N[C@@H](CC(N)=O)C(=O)N[C@@H](CC(N)=O)C(=O)N[C@@H](CO)C(=O)N[C@@H](CCCNC(=N)N)C(=O)N[C@@H](CC(C)C)C(=O)NCC(=O)N[C@@H](CC(N)=O)C(=O)NCC(=O)N[C@H](C(=O)N[C@@H](CC(C)C)C(=O)N[C@@H](Cc1ccc(O)cc1)C(=O)N[C@@H](C)C(=O)N[C@@H](CO)C(=O)N[C@H](C(=O)N[C@@H](CC(N)=O)C(=O)N1CCC[C@H]1C(N)=O)C(C)C)C(C)C) [peptide 23 (Pal-HRKRNNSRLGNGVLYASVNP-NH2)]
0.25 µM | 1.05 µM | Palmitoyl-VHRKRNNSRLGNGVLYASV-NH2 (SMILES CCCCCCCCCCCCCCCC(=O)N[C@H](C(=O)N[C@@H](Cc1c[nH]cn1)C(=O)N[C@@H](CCCNC(=N)N)C(=O)N[C@@H](CCCCN)C(=O)N[C@@H](CCCNC(=N)N)C(=O)N[C@@H](CC(N)=O)C(=O)N[C@@H](CC(N)=O)C(=O)N[C@@H](CO)C(=O)N[C@@H](CCCNC(=N)N)C(=O)N[C@@H](CC(C)C)C(=O)NCC(=O)N[C@@H](CC(N)=O)C(=O)NCC(=O)N[C@H](C(=O)N[C@@H](CC(C)C)C(=O)N[C@@H](Cc1ccc(O)cc1)C(=O)N[C@@H](C)C(=O)N[C@@H](CO)C(=O)N[C@H](C(N)=O)C(C)C)C(C)C)C(C)C) [peptide 6 (Pal-VHRKRNNSRLGNGVLYASV-NH2)]

Continued, binder first:

Binder | GI50 (µM), MTT assay, MCF-7 cells | TGI (µM), MTT assay, MCF-7 cells
Palmitoyl-HRKRNNSRLGNGVLYASV-NH2 (SMILES CCCCCCCCCCCCCCCC(=O)N[C@@H](Cc1c[nH]cn1)C(=O)N[C@@H](CCCNC(=N)N)C(=O)N[C@@H](CCCCN)C(=O)N[C@@H](CCCNC(=N)N)C(=O)N[C@@H](CC(N)=O)C(=O)N[C@@H](CC(N)=O)C(=O)N[C@@H](CO)C(=O)N[C@@H](CCCNC(=N)N)C(=O)N[C@@H](CC(C)C)C(=O)NCC(=O)N[C@@H](CC(N)=O)C(=O)NCC(=O)N[C@H](C(=O)N[C@@H](CC(C)C)C(=O)N[C@@H](Cc1ccc(O)cc1)C(=O)N[C@@H](C)C(=O)N[C@@H](CO)C(=O)N[C@H](C(N)=O)C(C)C)C(C)C) [peptide 5 (Pal-HRKRNNSRLGNGVLYASV-NH2)] | 0.45 µM | 1.45 µM
Palmitoyl-HRKRNNSRLGNG-NH2 (SMILES CCCCCCCCCCCCCCCC(=O)N[C@@H](Cc1c[nH]cn1)C(=O)N[C@@H](CCCNC(=N)N)C(=O)N[C@@H](CCCCN)C(=O)N[C@@H](CCCNC(=N)N)C(=O)N[C@@H](CC(N)=O)C(=O)N[C@@H](CC(N)=O)C(=O)N[C@@H](CO)C(=O)N[C@@H](CCCNC(=N)N)C(=O)N[C@@H](CC(C)C)C(=O)NCC(=O)N[C@@H](CC(N)=O)C(=O)NCC(N)=O) [peptide 1 (Pal-HRKRNNSRLGNG-NH2)] | 1.8 µM | > 5 µM
